Test results: the Human Domainome abundance scans (Beltran et al. 2025)

B1: Intersectin-2, residues 1129 to 1183; numbered along this chain, Q9NZM3 (parent)
chain: VCQVIAMYDYAANNEDELSFSKGQLINVMNKDDPDWWQGEINGVTGLFPSNYVKM
B2: Zinc finger homeobox protein 3, residues 2147 to 2202; numbered along this chain, Q15911 (parent)
chain: RPRTRITDDQLRVLRQYFDINNSPSEEQIKEMADKSGLPQKVIKHWFRNTLFKERQ

Variants of: B1
Assay: abundance fitness (aPCA) (normalised: wild type 0, dead -1); higher = more abundant; growth selection in yeast, the domain comes from the species named
Conditions: Homo sapiens

Abundance fitness: each site, then its substitutions
L47: I -0.183 | Q -0.019 | Y -0.04 | N -0.086 | H -0.061 | P -0.257 | D -0.142 | K 0.039 | T -0.014 | G -0.023 | W -0.061 | M -0.128 | S -0.011
F48: S -0.775 | M -0.092 | T -0.85 | V -0.027 | H -0.937 | A -0.69 | N -1.17 | C -0.199 | Y -0.898 | I -0.085 | L 0 | E -0.834 | Q -0.778 | K -1 | W -1 | P -0.718 | D -0.806 | G -0.945
K54: V -0.161 | D -0.05 | G -0.172 | T 0.014 | A -0.119 | R 0.099 | M -0.154 | S -0.055 | E -0.032 | Q -0.049 | I -0.123 | C -0.12 | Y -0.104 | P -0.507 | H -0.068 | L -0.177 | W -0.388 | F -0.148 | N -0.08
N51: L -0.149 | R -0.026 | Q -0.081 | Y -0.067 | F -0.141 | T -0.034 | S -0.02 | C -0.044 | G -0.021 | A -0.075 | E -0.154 | H -0.025 | P -0.038 | W -0.121 | M -0.071 | I -0.077 | D -0.005
Y52: S -0.066 | C -0.042 | I -0.023 | E -0.192 | H 0.009 | D -0.575 | G -0.122 | K 0.082 | F 0.15 | M -0.002 | T -0.065 | W -0.139 | N -0.107 | P -0.544 | R -0.019 | L 0.037
M55: K -0.233 | R -0.088 | L -0.095 | V -0.103 | E 0.009 | G -0.097 | T -0.06 | A 0.079 | S 0.007 | Q -0.09 | W -0.255
S50: K -0.074 | G -0.109 | P -0.015 | D -0.98 | Y -0.128 | W -0.399 | E -0.266 | N -0.1 | I -0.084 | C -0.139 | T -0.084 | L -0.166 | M 0.004 | Q -0.037 | A -0.046
V53: R -0.703 | W -1.11 | E -0.666 | Q -0.564 | C -0.054 | L -0.623 | T 0.03 | G -0.116 | P -0.905 | H -0.477 | A -0.071 | K -0.902 | I 0.065 | M -0.379
P49: T -0.746 | A -0.193 | H -0.1 | I -0.49 | E -0.442 | S -0.195 | F -0.358 | M -0.086 | K -0.017 | Y -0.104 | N -0.106 | V -0.782 | D -0.482 | R 0.017 | L -0.143 | Q -0.129

Variants of: B2
Assay: as above
Conditions: Homo sapiens

Abundance fitness of substitutions, site by site:
F47: Q -0.801 | M -0.242 | I -0.265
Q10: L -0.453 | N -0.477 | G -0.602
N49: K 0.06 | T -0.039 | D 0.001 | I -0.236 | P -0.65
E26: H -0.001 | P 0.031 | K -0.016
E31: I -0.252 | F -0.375 | T -0.011 | S -0.196 | D 0.047
T4: F 0.125 | H -0.549 | G -0.256
I20: G -0.045 | E -0.228 | F -0.037
R55: Q -0.054 | T -0.206 | D 0.114
